This assay deals with human CD16a F176 variant, biotinylated (human) (UniProt P08637). Put plainly: AlphaScreen competition: 10 nM C-terminally biotinylated CD16a F176, mouse IgG2a-conjugated acceptor beads as competed ligand. (Bead proximity is the source of the signal in Alpha formats.)
Chain of human CD16a F176 variant, biotinylated (human) (P08637 17-208 limits assumed, change not shown): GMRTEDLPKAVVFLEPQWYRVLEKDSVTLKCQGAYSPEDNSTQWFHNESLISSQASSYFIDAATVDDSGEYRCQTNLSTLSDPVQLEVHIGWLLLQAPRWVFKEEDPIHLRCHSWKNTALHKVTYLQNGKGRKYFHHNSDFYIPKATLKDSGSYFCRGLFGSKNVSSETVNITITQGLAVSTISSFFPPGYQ

IgG positive control (antibody) gave an IC50 (read off the curve) of 50 nM.

Values taken from patent US20240108738A1, “BICYCLIC PEPTIDE LIGANDS SPECIFIC FOR NK CELLS” (Bicycle Tx Limited, priority 2021, published 2024).
